Values quoted from earlier work as cited in publication PMC2628467.

Target: RNase H folding intermediate mimic (Escherichia coli) (UniProt P0A7Y4)

- Kd: 0.5 µM
Substance: RNase H folding intermediate mimic (from UniProt P0A7Y4)
